The record followed here is IntAct's records for PubMed 19366670.

In this assay the target is T1, asia_bpt4 asiA (UniProt P32267).
T1 sequence: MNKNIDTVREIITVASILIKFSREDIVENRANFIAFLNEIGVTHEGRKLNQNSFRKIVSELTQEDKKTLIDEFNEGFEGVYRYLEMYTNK

Regarding “DNA-directed RNA polymerase subunit beta (Escherichia coli (strain K12)) (from UniProt P0A8V2) G907K”, the “effect of a mutation on the interaction” value is recorded as “decreasing interaction strength”. As for “DNA-directed RNA polymerase subunit beta (Escherichia coli (strain K12)) (from UniProt P0A8V2) I905A;F906A”, the entry is “decreasing interaction strength”.
